{
  "source": "patent US10494417B2",
  "about": "“Peptide inhibitors of BCR-ABL oligomerization” (University of Utah Research Foundation, priority 2014, dated 2019)",
  "test_system": "Ba/F3-P210 cells",
  "test": "Viability of transfected Ba/F3-p210 cells (trypan blue exclusion)",
  "format": "cell-based, mouse",
  "settings": "72 h following transfection, vs mCherry control, n=1",
  "protocol": "Two days following cell passaging, 3.0×10^6 cells were collected by centrifugation at 750×g for 10 min for each transfection group. Following collection, 4 μg DNA was transfected into cells according to the Cell Line Nucleofector® Kit V protocol (program X-001) using the Amaxa Nuelcofector II. Following nucleofection, the DNA/cell mixture was added to 500 μL plain RPMI and incubated for 20 min. After incubation, the 500 μL cell/DNA/RPMI mixture was added to complete RPMI 1640 media and allowed to incubate at 37° C. for 72 h until analysis.\nForty-eight or 72 h following transfection, 100 μL of treated K562 or Ba/F3-p210 cells was mixed with 100 μL trypan blue solution (Life Technologies). The numbers of viable cells (those impermeable to the trypan blue dye) from four different quadrants in an INCYTO™ C-CHIP™ Neubauer hemacytometer (VWR International, Radnor, Pa., USA) were counted using a standard light microscope. Quadrant counts were then averaged to obtain the number of viable cells per mL. For experiments using the Helix2mut3 construct, counts were performed on one aliquot per transfection (n=3 in replicate). In experiments involving the CappedHelix2mut3 construct, counts were performed three times using separate 100 pt aliquots from one transfection (n=1 in triplicate).",
  "data": [
    {"molecule": "CCmut3: modified Bcr-Abl coiled-coil domain (residues 1-72) with mutations C38A, K39E, S41R, L45D, E48R, Q60E (protein) MVDPVGFAEAWKAQFPDSEPPRMELRSVGDIEQELERAEARIRRDEQRVNQERFRMIYLETLLAKEKKSYDR", "values": [
      {"measurement": "proliferation/viability of Ba/F3-p210 cells", "value": "replicated to a similar extent"}
    ]}
  ]
}
